This passage reports protein stability index results from the supplement of paper PMC10567573.

To fix the notation:
B1: CLCN6 (parent)
chain: TGLVGLFVDFFVRLFTQLKFGVVQ
B2: ZNF8 (parent)
chain: RIHTGERPYMCKECGKAFSQNSSL
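Also: lentivirally expressed fusions sorted by FACS into six bins by GFP to DsRed ratio, PSI derived from sequencing read proportions per bin multiplied by bin number.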

The variants in the first series derive from B1. In words: protein stability index of a GFP-peptide fusion (GPS, HEK-293T) (PSI 1-6); higher = more stable. Conditions: c terminus: a fixed tail appended.
As to TGLPGLFVDFFVRLFTQLKFGVVQ [V4P], the protein stability index was determined as 2.05.

Consider TGLYGLFVDFFVRLFTQLKFGVVQ [V4Y], for which the protein stability index is 2.07.

TGLAGLFVDFFVRLFTQLKFGVVQ [V4A]: the protein stability index was found to be 1.97.

With TGLIGLFVDFFVRLFTQLKFGVVQ [V4I], the protein stability index worked out at 2.56.

TGLTGLFVDFFVRLFTQLKFGVVQ [V4T]: the protein stability index was found to be 2.38.

On to TGLLGLFVDFFVRLFTQLKFGVVQ [V4L], for which the protein stability index was determined as 2.33.

As for TGLGGLFVDFFVRLFTQLKFGVVQ [V4G], the protein stability index is 1.66.

On to TGLHGLFVDFFVRLFTQLKFGVVQ [V4H], for which the protein stability index came out at 2.28.

For the variant TGLMGLFVDFFVRLFTQLKFGVVQ [V4M], the protein stability index was 2.49.

As for TGLDGLFVDFFVRLFTQLKFGVVQ [V4D], the protein stability index was 4.33.

With TGLKGLFVDFFVRLFTQLKFGVVQ [V4K], the protein stability index came out at 2.16.

Take TGLNGLFVDFFVRLFTQLKFGVVQ [V4N]: the protein stability index was found to be 2.39.

In the case of TGLSGLFVDFFVRLFTQLKFGVVQ [V4S], the protein stability index amounted to 2.63.

In the case of TGLFGLFVDFFVRLFTQLKFGVVQ [V4F], the protein stability index was 2.93.

Take TGLCGLFVDFFVRLFTQLKFGVVQ [V4C]: the protein stability index was 2.36.

With TGLRGLFVDFFVRLFTQLKFGVVQ [V4R], the protein stability index amounted to 2.19.

For the variant TGLQGLFVDFFVRLFTQLKFGVVQ [V4Q], the protein stability index was 2.79.

With TGLWGLFVDFFVRLFTQLKFGVVQ [V4W], the protein stability index was found to be 3.63.

As for QGLVGLFVDFFVRLFTQLKFGVVQ [T1Q], the protein stability index was found to be 2.17.

For the variant WGLVGLFVDFFVRLFTQLKFGVVQ [T1W], the protein stability index was determined as 1.73.

For IGLVGLFVDFFVRLFTQLKFGVVQ [T1I], the protein stability index came to 1.56.

Regarding EGLVGLFVDFFVRLFTQLKFGVVQ [T1E], the protein stability index is 1.92.

For PGLVGLFVDFFVRLFTQLKFGVVQ [T1P], the protein stability index was found to be 2.59.

GGLVGLFVDFFVRLFTQLKFGVVQ [T1G]: the protein stability index was 2.12.

Turning to VGLVGLFVDFFVRLFTQLKFGVVQ [T1V], the protein stability index was 1.7.

With RGLVGLFVDFFVRLFTQLKFGVVQ [T1R], the protein stability index stood at 3.29.

On to LGLVGLFVDFFVRLFTQLKFGVVQ [T1L], for which the protein stability index was 1.68.

HGLVGLFVDFFVRLFTQLKFGVVQ [T1H]: the protein stability index is 2.01.

Turning to DGLVGLFVDFFVRLFTQLKFGVVQ [T1D], the protein stability index stood at 2.39.

For CGLVGLFVDFFVRLFTQLKFGVVQ [T1C], the protein stability index turned out to be 2.14.

Consider YGLVGLFVDFFVRLFTQLKFGVVQ [T1Y], for which the protein stability index turned out to be 2.82.

With AGLVGLFVDFFVRLFTQLKFGVVQ [T1A], the protein stability index worked out at 1.84.

KGLVGLFVDFFVRLFTQLKFGVVQ [T1K]: the protein stability index worked out at 2.83.

As to MGLVGLFVDFFVRLFTQLKFGVVQ [T1M], the protein stability index turned out to be 1.99.

As for NGLVGLFVDFFVRLFTQLKFGVVQ [T1N], the protein stability index was determined as 1.8.

In the case of SGLVGLFVDFFVRLFTQLKFGVVQ [T1S], the protein stability index came out at 2.6.

FGLVGLFVDFFVRLFTQLKFGVVQ [T1F]: the protein stability index was found to be 2.1.

TGHVGLFVDFFVRLFTQLKFGVVQ [L3H]: the protein stability index was 2.25.

TGVVGLFVDFFVRLFTQLKFGVVQ [L3V]: the protein stability index worked out at 2.42.

Consider TGYVGLFVDFFVRLFTQLKFGVVQ [L3Y], for which the protein stability index was found to be 2.63.

Take TGQVGLFVDFFVRLFTQLKFGVVQ [L3Q]: the protein stability index worked out at 1.49.

With TGGVGLFVDFFVRLFTQLKFGVVQ [L3G], the protein stability index amounted to 1.4.

Regarding TGMVGLFVDFFVRLFTQLKFGVVQ [L3M], the protein stability index worked out at 2.73.

Regarding TGNVGLFVDFFVRLFTQLKFGVVQ [L3N], the protein stability index stood at 2.11.

On to TGRVGLFVDFFVRLFTQLKFGVVQ [L3R], for which the protein stability index came out at 2.52.

On to TGWVGLFVDFFVRLFTQLKFGVVQ [L3W], for which the protein stability index was 3.37.

Take TGIVGLFVDFFVRLFTQLKFGVVQ [L3I]: the protein stability index was found to be 2.36.

For the variant TGKVGLFVDFFVRLFTQLKFGVVQ [L3K], the protein stability index is 3.14.

Take TGSVGLFVDFFVRLFTQLKFGVVQ [L3S]: the protein stability index came to 2.05.

Consider TGEVGLFVDFFVRLFTQLKFGVVQ [L3E], for which the protein stability index is 3.71.

TGAVGLFVDFFVRLFTQLKFGVVQ [L3A]: the protein stability index was 2.15.

For TGDVGLFVDFFVRLFTQLKFGVVQ [L3D], the protein stability index is 2.07.

Take TGPVGLFVDFFVRLFTQLKFGVVQ [L3P]: the protein stability index was 2.45.

With TGFVGLFVDFFVRLFTQLKFGVVQ [L3F], the protein stability index stood at 2.71.

For TGCVGLFVDFFVRLFTQLKFGVVQ [L3C], the protein stability index stood at 2.42.

As to TGTVGLFVDFFVRLFTQLKFGVVQ [L3T], the protein stability index is 1.65.

Regarding TCLVGLFVDFFVRLFTQLKFGVVQ [G2C], the protein stability index is 2.77.

For the variant TELVGLFVDFFVRLFTQLKFGVVQ [G2E], the protein stability index was found to be 1.67.

With TSLVGLFVDFFVRLFTQLKFGVVQ [G2S], the protein stability index amounted to 1.96.

With THLVGLFVDFFVRLFTQLKFGVVQ [G2H], the protein stability index was determined as 2.34.

Regarding TTLVGLFVDFFVRLFTQLKFGVVQ [G2T], the protein stability index is 1.81.

Take TFLVGLFVDFFVRLFTQLKFGVVQ [G2F]: the protein stability index is 3.79.

As for TRLVGLFVDFFVRLFTQLKFGVVQ [G2R], the protein stability index came to 2.78.

As for TYLVGLFVDFFVRLFTQLKFGVVQ [G2Y], the protein stability index was determined as 2.9.

TLLVGLFVDFFVRLFTQLKFGVVQ [G2L]: the protein stability index was 3.27.

In the case of TPLVGLFVDFFVRLFTQLKFGVVQ [G2P], the protein stability index is 1.67.

As to TNLVGLFVDFFVRLFTQLKFGVVQ [G2N], the protein stability index turned out to be 1.84.

With TILVGLFVDFFVRLFTQLKFGVVQ [G2I], the protein stability index stood at 2.36.

Consider TKLVGLFVDFFVRLFTQLKFGVVQ [G2K], for which the protein stability index is 2.53.

Take TDLVGLFVDFFVRLFTQLKFGVVQ [G2D]: the protein stability index turned out to be 1.64.

On to TQLVGLFVDFFVRLFTQLKFGVVQ [G2Q], for which the protein stability index was 1.73.

With TMLVGLFVDFFVRLFTQLKFGVVQ [G2M], the protein stability index came out at 2.66.

As for TWLVGLFVDFFVRLFTQLKFGVVQ [G2W], the protein stability index came out at 2.22.

In the case of TGLVTLFVDFFVRLFTQLKFGVVQ [G5T], the protein stability index turned out to be 1.34.

On to TGLVHLFVDFFVRLFTQLKFGVVQ [G5H], for which the protein stability index turned out to be 2.16.

On to TGLVELFVDFFVRLFTQLKFGVVQ [G5E], for which the protein stability index was found to be 1.78.

For TGLVDLFVDFFVRLFTQLKFGVVQ [G5D], the protein stability index stood at 2.47.

On to TGLVMLFVDFFVRLFTQLKFGVVQ [G5M], for which the protein stability index is 2.48.

Consider TGLVQLFVDFFVRLFTQLKFGVVQ [G5Q], for which the protein stability index came to 2.21.

As for TGLVALFVDFFVRLFTQLKFGVVQ [G5A], the protein stability index is 2.19.

For TGLVSLFVDFFVRLFTQLKFGVVQ [G5S], the protein stability index was 2.21.

Consider TGLVRLFVDFFVRLFTQLKFGVVQ [G5R], for which the protein stability index is 2.69.

Consider TGLVNLFVDFFVRLFTQLKFGVVQ [G5N], for which the protein stability index came to 2.

Regarding TGLVFLFVDFFVRLFTQLKFGVVQ [G5F], the protein stability index came to 1.72.

As for TGLVKLFVDFFVRLFTQLKFGVVQ [G5K], the protein stability index came out at 3.25.

For TGLVPLFVDFFVRLFTQLKFGVVQ [G5P], the protein stability index came to 2.71.

TGLVWLFVDFFVRLFTQLKFGVVQ [G5W]: the protein stability index amounted to 1.86.

TGLVCLFVDFFVRLFTQLKFGVVQ [G5C]: the protein stability index came out at 2.42.

Variants of B2 are the subject of a further series. Described as above. Conditions: c terminus: a fixed tail appended.
As for RIHTGERPYMCKNCGKAFSQNSSL [E13N], the protein stability index came out at 2.35.

As for RIHTGERPYMCKSCGKAFSQNSSL [E13S], the protein stability index is 1.95.

For the variant RIHTGERPYMCKCCGKAFSQNSSL [E13C], the protein stability index was 1.85.

As to RIHTGERPYMCKYCGKAFSQNSSL [E13Y], the protein stability index was determined as 1.92.

Consider RIHTGERPYMCKICGKAFSQNSSL [E13I], for which the protein stability index was found to be 1.88.

For RIHTGERPYMCKQCGKAFSQNSSL [E13Q], the protein stability index came to 2.24.
